IntAct's records for PubMed 15916946

B1: Serine/threonine-protein kinase tousled-like 1 (Caenorhabditis elegans), P34314 (parent)
chain: MSMLSMDGIVAGGGSSSGGGERSFVLEQKMFNTGPQNKALPTVQSSGSSSNHAPIVGESPLGTVSSTMATGDTGRVGNVTYMSSGMLGATQFMPQNSSHPSTSVMMQQVPPQNGGATRSSPTEMQQCMQAMSEDSIEMRDYNSGVHHMHPHQMQMQQQQQHHQQQYNMSYHNHQQQMQQMHYHQQQQQYQQQQAQHHQMYAPQIQQQQQQPQQQSQQQSAQQPQQSSAALQHVNESSNLSSAGSISDREPEQHGGTPQRPTAPQSSTATDKKTRKRRKAGPTEDQATPKQERKITEFMKVGGEVASGNSVARCLLTEYHQNQGSPKRQPAVQQNGSNSYDSQQQQPQMNQHEMQNSYWGVATPSLGVNNRGTPTPTQQQHYSSDSNSNSNQSPPGQGNQSGRMVRTIDEETQTDSSLSQANPQNADEVAKMNRIIEDHRRQIEELNSKNSLERRKNEASKETIKRLLIDKNQIERKALRDKTAADSPRIGCFKTTRTGDSFRDQWVDGWAFAEMDKKTEQINAERNEIASASALLKKRKPLGIGKEPKRPQAVNSQNDSNGMQPSTSSNTNGDDAIFRRPEEPKEIQYQEYIELDEIYKLRREHLRKEETDLSMEKERLEKEKQHHVRELKRASNESASQFNDHRLLHKRYLMLNLLGKGGFSEVWKAFDIEENRYVACKIHHVNKDWKEEKKANYVKHAMREKDIHKSLDHCRIVKQYDLLTIDNHSFCTVLEYVPGNDLDFYLKQNRSISEKEARSIIMQVVSALVYLNEKSTPIIHYDLKPANILLESGNTSGAIKITDFGLSKIMEGESDDHDLGIELTSQFAGTYWYLPPETFIVPPPKITCKVDVWSIGVIFYQCIYGKKPFGNDLTQQKILEYNTIINAREVSFPSKPQVSSAAQDFIRRCLQYRKEDRADVFELAKHELFRPRGAIRASVAGSLLLVIITLCQHSNRSEDRLCVSNV
partner: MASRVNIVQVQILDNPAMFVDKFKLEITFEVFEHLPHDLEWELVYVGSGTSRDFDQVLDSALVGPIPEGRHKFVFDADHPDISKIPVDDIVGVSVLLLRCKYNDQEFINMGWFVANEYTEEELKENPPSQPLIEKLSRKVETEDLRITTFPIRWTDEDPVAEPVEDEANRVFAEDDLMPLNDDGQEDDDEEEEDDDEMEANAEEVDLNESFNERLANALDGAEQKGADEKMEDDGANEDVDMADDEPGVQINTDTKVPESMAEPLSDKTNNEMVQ

Variants of: B1
Conditions: with asf1_caeel unc-85, Q19326

| effect of a mutation on the interaction | Variant |
| --- | --- |
| increasing interaction | S634E |
| increasing interaction | S634A |
